According to US20090208491A1 (published 2009):

Tests used:
[1] = molecular target: Notch1 antigen protein (amino acids 1-220 of human Notch1 with human Fc-tag or histidine-tag) (human) (UniProt P46531); experiment: Biacore, binding to Notch1 antigen
[2] = molecular target: T1, Notch1 antigen protein (amino acids 1-220 of human Notch1 with human Fc-tag or histidine-tag) (human, UniProt P46531 19-220); experiment: Biacore, binding to Notch1 antigen
T1 construct: range 19-220; Made in insect cells with baculovirus; also called Notch1 antigen corresponding to EGF repeats 1-5; not shown: C-terminal human Fc-tag or histidine-tag
T1 sequence (looked up): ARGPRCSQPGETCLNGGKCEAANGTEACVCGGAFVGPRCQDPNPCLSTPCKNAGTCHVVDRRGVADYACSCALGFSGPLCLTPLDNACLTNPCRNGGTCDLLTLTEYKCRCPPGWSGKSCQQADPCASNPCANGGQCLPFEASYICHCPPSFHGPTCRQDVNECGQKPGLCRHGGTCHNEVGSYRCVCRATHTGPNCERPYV
Text: The two best humanized 13M57 antibodies (13M57H5 L6 and 13M57H5 L21) were then further characterized. The humanized 13M57 antibodies were purified using protein A chromatography.

[3] = molecular target: T1, Notch1 antigen protein (amino acids …); experiment: ELISA of HEK 293 conditioned media on Notch1 antigen; heavy chain cotransfected with the murine 13M57 light chain
Method: The functionality of each candidate variant humanized heavy and light chain was tested by cotransfection into mammalian cells. Each of the eleven candidate humanized 13M57 heavy chains described above was cotransfected with the murine 13M57 light chain cDNA into HEK 293 cells, and conditioned media was then assayed for Notch1 antigen binding activity by ELISA. […] This variant—“13M57H5”—contained, in additional to murine CDRs, murine residues at five framework positions, Kabat positions 44, 46, 49, 89, and 93 (FIG. 3). The 13M57H5 humanized heavy chain was then cotransfected with each of the eleven candidate humanized light chains into HEK293 cells, and conditioned media was again assayed for antigen binding by ELISA. […] To evaluate the importance of the individual murine residues in 13M57 L5 and 13M57 L6, a farther series of candidate variant light chains were synthesized that combined one or more of the murine residues at Kabat positions 42-45 and 89-90. These candidate variant light chains were then tested as described above.

B1: murine monoclonal antibody 13M57 (antibody, from another filing, V domains shown)
VH: EVNLVESGGDLVQPGGSLRLSCAASGFTFSSYTMSWVRQTPEKRLEWVAYIDYGGDFTSYSDAIRGRFTISRDNAKNTLYLQMSSLKSEDTAIYYCSRRRYDAMDYWGQGTSVIVSS
VL: DIQMTQSTSSLSASLGDRVTVSCSASQAISNYLNWYQQKPDGTLKLLIYYTTNLHSGVPSRFSGSGSGTDYSLTISNLEPEDIATYYCQQYSKFPWTFGGGTKLEIKR
Question: How did the Kd [1] turn out when B1 was run?
Answer: 0.05 nM

B2: humanized 13M57H5L6 antibody (antibody, human IgG2, V domains shown)
VH: EVQLVESGGGLVQPGGSLRLSCAASGFTFSSYTMSWVRQAPGKRLEWVAYIDYGGDFTSYSDAIRGRFTISRDNAKNTLYLQMNSLRAEDTAIYYCSRRRYDAMDYWGQGTLVTVSS
VL: DIQMTQSPSSLSASVGDRVTITCSASQAISNYLNWYQQKPGKAPKLLIYYTTNLHSGVPSRFSGSGSGTDYSFTISSLQPEDIATYYCQQYSKFPWTFGGGTKVEIKR
notes: Variant heavy chains were fused in-frame to the human IgG2 constant region; also called 13M57 L6H5; humanized L6H5 13M57
Question: How did the Kd [2] turn out when B2 was run?
Answer: ~0.08 nM

B3: 13M57H5 humanized heavy chain cotransfected with the murine 13M57 light chain (antibody, human IgG2, V domains shown)
VH: EVQLVESGGGLVQPGGSLRLSCAASGFTFSSYTMSWVRQAPGKRLEWVAYIDYGGDFTSYSDAIRGRFTISRDNAKNTLYLQMNSLRAEDTAIYYCSRRRYDAMDYWGQGTLVTVSS
VL: DIQMTQSTSSLSASLGDRVTVSCSASQAISNYLNWYQQKPDGTLKLLIYYTTNLHSGVPSRFSGSGSGTDYSLTISNLEPEDIATYYCQQYSKFPWTFGGGTKLEIK
notes: Heavy chain fused to the human IgG2 constant region; tested as conditioned medium from HEK 293 cells
Question: Does B3 bind [3]?
Answer: binds

B4: humanized 13M57H5L21 antibody (antibody, human IgG2, V domains shown)
VH: EVQLVESGGGLVQPGGSLRLSCAASGFTFSSYTMSWVRQAPGKRLEWVAYIDYGGDFTSYSDAIRGRFTISRDNAKNTLYLQMNSLRAEDTAIYYCSRRRYDAMDYWGQGTLVTVSS
VL: DIQMTQSPSSLSASVGDRVTITCSASQAISNYLNWYQQKPDGTLKLLIYYTTNLHSGVPSRFSGSGSGTDYSFTISSLQPEDIATYYCQQYSKFPWTFGGGTKVEIKR
notes: Human IgG2 heavy chain constant region; also called 13M57 L21H5; ATCC PTA-8424
Question: Which Kd [2] does the source give for B4 here?
Answer: ~0.1 nM
